T1: His-tagged CodA, purified recombinant (E. coli, UniProt P25524 1-427)
T1 sequence (looked up): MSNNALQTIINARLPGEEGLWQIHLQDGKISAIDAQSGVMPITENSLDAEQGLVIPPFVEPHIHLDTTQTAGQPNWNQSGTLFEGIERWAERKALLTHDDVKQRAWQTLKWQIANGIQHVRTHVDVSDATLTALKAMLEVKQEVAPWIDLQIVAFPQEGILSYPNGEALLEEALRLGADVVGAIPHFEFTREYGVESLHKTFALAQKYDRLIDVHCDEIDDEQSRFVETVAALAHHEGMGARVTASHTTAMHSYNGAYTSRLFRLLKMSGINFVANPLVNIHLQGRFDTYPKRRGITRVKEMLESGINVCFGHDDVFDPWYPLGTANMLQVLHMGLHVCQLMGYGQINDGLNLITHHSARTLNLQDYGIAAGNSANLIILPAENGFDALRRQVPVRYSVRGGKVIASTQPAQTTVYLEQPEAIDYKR


Experiments:
[1] = target: the molecule itself; assay: non-reducing SDS-PAGE and anti-FLAG western blot of lysates
[2] = target: T1, His-tagged CodA, purified recombinant; assay: co-IP

Binder | stoichiometry N [1] | binding result [2]
FLAG-tagged Hcp (hybrid-cluster protein), overexpressed in WT E. coli (enzyme, UniProt P75825 1-550, looked up) MFCVQCEQTIRTPAGNGCSYAQGMCGKTAETSDLQDLLIAALQGLSAWAVKAREYGIINHDVDSFAPRAFFSTLTNVNFDSPRIVGYAREAIALREALKAQCLAVDANARVDNPMADLQLVSDDLGELQRQAAEFTPNKDKAAIGENILGLRLLCLYGLKGAAAYMEHAHVLGQYDNDIYAQYHKIMAWLGTWPADMNALLECSMEIGQMNFKVMSILDAGETGKYGHPTPTQVNVKATAGKCILISGHDLKDLYNLLEQTEGTGVNVYTHGEMLPAHGYPELRKFKHLVGNYGSGWQNQQVEFARFPGPIVMTSNCIIDPTVGAYDDRIWTRSIVGWPGVRHLDGDDFSAVITQAQQMAGFPYSEIPHLITVGFGRQTLLGAADTLIDLVSREKLRHIFLLGGCDGARGERHYFTDFATSVPDDCLILTLACGKYRFNKLEFGDIEGLPRLVDAGQCNDAYSAIILAVTLAEKLGCGVNDLPLSLVLSWFEQKAIVILLTLLSLGVKNIVTGPTAPGFLTPDLLAVLNEKFGLRSITTVEEDMKQLLSA | 2 | 
His-tagged GAPDH, purified recombinant (enzyme, E. coli, UniProt P0A9B2 1-331, looked up) MTIKVGINGFGRIGRIVFRAAQKRSDIEIVAINDLLDADYMAYMLKYDSTHGRFDGTVEVKDGHLIVNGKKIRVTAERDPANLKWDEVGVDVVAEATGLFLTDETARKHITAGAKKVVMTGPSKDNTPMFVKGANFDKYAGQDIVSNASCTTNCLAPLAKVINDNFGIIEGLMTTVHATTATQKTVDGPSHKDWRGGRGASQNIIPSSTGAAKAVGKVLPELNGKLTGMAFRVPTPNVSVVDLTVRLEKAATYEQIKAAVKAAAEGEMKGVLGYTEDDVVSTDFNGEVCTSVFDAKAGIALNDNFVKLVSWYDNETGYSNKVLDLIAHISK |  | binds
